{
  "source": "patent US20240228627A1",
  "about": "“GALECTIN-1-SPECIFIC MONOVALENT ANTIBODIES AND USES THEREOF” (INSTITUT NATIONAL DE LA RECHERCHE SCIENTIFIQUE, priority 2021, published 2024)",
  "molecules": {"B1": {"name": "G1N1: galectin-1-specific single-domain camelid VHH nanobody, SEQ ID NO:8; lead clone from phage display of a humanized synthetic library (protein)", "VHH": "MAEVQLQASGGGFVQPGGSLRLSCAASGSTFSEDAMGWFRQAPGKEREFVSAISGFANPHSYYADSVKGRFTISRDNSKNTVYLQMNSLRAEDTATYYCAASHKKTRAPAATFETYWGQGTQVTVSS", "modifications": "full sequence of G1N1 VHH"}},
  "key": {"[1]": {"biological_target": "T1, human galectin-1 (Homo sapiens, UniProt P09382)", "T1 construct": "made in house; host or cells: E. coli BL21 (DE3), pET-22b(+)", "T1 sequence (P09382 whole entry)": "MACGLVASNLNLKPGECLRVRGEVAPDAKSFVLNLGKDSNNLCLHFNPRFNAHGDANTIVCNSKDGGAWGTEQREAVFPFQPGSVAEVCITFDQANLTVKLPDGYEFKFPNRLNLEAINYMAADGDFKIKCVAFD", "experiment": "microscale thermophoresis (MST) binding affinity, human galectin-1", "experimental": "(§1) FIGS. 9A-C show the binding affinities evaluated by microscale thermophoresis (MST) using various ligands over a range of 16 ligand concentrations allowing to obtain a full concentration-response curve. FIG. 9A: Red-NHS labeled human GAL-1 (5 nM) incubated with G1N1 or alpha-lactose (a-lactose). FIG. 9B: Red-NHS labeled G1N1 (2 nM) was used to study the affinity of G1N1 for mouse and human galectin-1. […] All experiments were performed in 20 mM Tris-HCl 150 mM NaCl and 0.1% F127. Binding affinities (Kd values) were determined from the fitted curves (three parameter dose-response curve) obtained from data of at least 3 independent experiments. For each value, 95% confidence intervals (Cl) are indicated.\n(§2) Microscale thermophoresis (MST. Galectins were labeled using the RED-NHS labeling kit (Nanotemper Technologies, Germany) in accordance with the manufacturer's protocol. Unreacted dye was removed using the provided purification columns. Binding affinity assays were performed in 20 mM Tris-HCl, 150 mM NaCl and 0.1% F127. Samples were loaded into standard Monolith NT.115 capillaries and microscale thermophoresis was measured using a Monolith NT.115 Pico instrument (Nanotemper Technologies, Germany) at ambient temperature. Binding affinities (Kd values) were determined from the fitted curves (three parameter dose-response curve)."}, "[2]": {"biological_target": "T2, human GAL-7 (Homo sapiens, UniProt P47929)", "T2 construct": "made in house; host or cells: E. coli BL21 (DE3), pET-22b(+)", "T2 sequence (P47929 whole entry)": "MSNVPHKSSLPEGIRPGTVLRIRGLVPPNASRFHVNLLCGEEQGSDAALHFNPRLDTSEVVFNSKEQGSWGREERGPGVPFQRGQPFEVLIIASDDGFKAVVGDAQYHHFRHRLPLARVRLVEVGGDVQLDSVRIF", "experiment": "inhibition of GAL-7-induced apoptosis of Jurkat T cells (annexin V/propidium iodide flow cytometry)", "format": "cell-based", "conditions": "human GAL-7 10 μM, 4 h at 37° C."}, "[3]": {"biological_target": "T3, human GAL-8 (Homo sapiens, UniProt O00214)", "T3 sequence (O00214 1-317)": "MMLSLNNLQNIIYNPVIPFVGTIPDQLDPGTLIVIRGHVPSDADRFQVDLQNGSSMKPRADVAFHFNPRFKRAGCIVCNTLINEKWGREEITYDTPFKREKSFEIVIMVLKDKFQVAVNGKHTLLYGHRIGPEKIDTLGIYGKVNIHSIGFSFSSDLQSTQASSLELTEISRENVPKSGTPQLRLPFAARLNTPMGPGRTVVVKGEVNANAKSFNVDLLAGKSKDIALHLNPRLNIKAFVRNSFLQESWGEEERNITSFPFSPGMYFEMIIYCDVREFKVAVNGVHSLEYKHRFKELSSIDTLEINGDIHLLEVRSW", "experiment": "microscale thermophoresis (MST) binding, human GAL-8", "conditions": "at 10 μM; Red-NHS labeled G1N1 (2 nM)", "experimental": "as §1, §2"}, "[4]": {"biological_target": "T2, human GAL-7", "experiment": "microscale thermophoresis (MST) binding, human GAL-7", "conditions": "at 10 μM; Red-NHS labeled G1N1 (2 nM)", "experimental": "as §1, §2"}, "[5]": {"biological_target": "T4, GAL-1-Biotin (biotinylated human GAL-1) (Homo sapiens, UniProt P09382)", "T4 construct": "made in house; host or cells: E. coli BL21 (DE3), pET-22b(+)", "T4 sequence (P09382 whole entry)": "as the sequence (P09382 whole entry) above", "experiment": "non-adsorbed phage ELISA of VHH clones on GAL-1-Biotin", "format": "binding", "conditions": "HRP-conjugated anti-M13 antibody, TMB substrate; 282 clones tested", "experimental": "Generation and production of single chain camelid antibodies. Galectin-specific single chain (VHH) camelid antibodies were obtained following in vitro screening of a non-immune humanized synthetic single domain antibodies (hsd2Ab) library that contains more than 3×10^9 clones expressed at the surface of M13 phage [Moutel et al., 2016]. The panning was carried out against immobilized recombinant human galectin-1 devoid of carbohydrate in its glycan binding site (GBS). Prior to the phage display selection, galectin-1-biotin and GST-Biotin were bound to streptavidin magnetic beads (Dynabeads® M-280 Streptavidin, Life Technologies) with a 50 nM final concentration of biotinylated protein for the first round and 10 nM final concentration of biotinylated protein for the second and third rounds. […] Following three-rounds of phage display, clones were picked randomly and analyzed by non-adsorbed phage ELISA using HRP-conjugated anti-M13 antibody (GE Healthcare) and a colorimetric substrate (TMB, tetramethylbenzidine, Thermo Fischer).\nFollowing an initial pre-screen round of phage display carried out with GST-biotin to deplete the library from unspecific binders, unbound VHHs were incubated with GAL-1-Biotin beads. […] A total of 282 VHHs were then picked and analyzed by ELISA for galectin-1 binders."}, "[6]": {"biological_target": "T5, mouse galectin-1 (Mus musculus, UniProt P16045)", "T5 construct": "made in house; host or cells: E. coli BL21 (DE3), pET-22b(+)", "T5 sequence (P16045 whole entry)": "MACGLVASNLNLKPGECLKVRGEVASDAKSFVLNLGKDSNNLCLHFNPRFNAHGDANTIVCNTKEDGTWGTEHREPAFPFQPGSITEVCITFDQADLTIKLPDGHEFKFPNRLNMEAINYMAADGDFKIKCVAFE", "experiment": "microscale thermophoresis (MST) binding affinity, mouse galectin-1", "conditions": "Red-NHS labeled G1N1 (2 nM); 20 mM Tris-HCl 150 mM NaCl 0.1% F127", "experimental": "as §1, §2"}, "[7]": {"biological_target": "T6, recombinant human GAL-1 (rhGAL-1) (Homo sapiens, UniProt P09382)", "T6 construct": "made in house; host or cells: E. coli BL21 (DE3), pET-22b(+)", "T6 sequence (P09382 whole entry)": "as the sequence (P09382 whole entry) above", "experiment": "inhibition of galectin-1-induced apoptosis of Jurkat T cells (annexin V/propidium iodide flow cytometry)", "format": "cell-based", "conditions": "rhGAL-1 2.25 μM, 4 h at 37° C., increasing concentrations of nanobody", "experimental": "Briefly, Jurkat T cells were incubated with recombinant human GAL-1 (rhGAL-1; 2.25 μM) for 4h at 37° C. in presence of increasing concentrations of G1N1 and G1N2. Apoptosis was measured by flow cytometry using conventional annexin V/propidium iodide staining. Results represent data recorded on 5000 cells. Errors bars represent standard deviation.\nJurkat T cells were incubated with increasing concentrations of G1N1 pre-incubated with rhGAL-1 (2.25 μM) for 4 h at 37° C., after which apoptosis was measured by flow cytometry using Annexin V/propidium iodide staining. 5000 events were recorded. Errors bars represent standard deviation.\nApoptosis of human T cells. In vitro apoptosis assays were carried out using the standard in vitro human Jurkat T cell model system, fluorescein isothiocyanate (FITC)-labeled annexin V (Biolegend, San Diego, CA, USA) and propidium iodide (PI). Briefly, recombinant galectin-1 was pre-incubated for 1 h at 4° C. in serum free RPMI 1640 medium before addition to Jurkat cells. The mixture was incubated at 37° C. for 4 h. Cells were then washed once in PBS and once in binding buffer (0.01 M HEPES, 0.14 M NaCl, 2.5 mM CaCl2, pH 7.4). For staining, cells were incubated for 15 min with FITC-labeled annexin V in the dark at room temperature. The PI (0.25 μg/mL) stain was added to cells just before analysis by flow cytometry."}, "[8]": {"biological_target": "T7, mouse GAL-7 (Mus musculus, UniProt O54974)", "T7 sequence (O54974 1-136)": "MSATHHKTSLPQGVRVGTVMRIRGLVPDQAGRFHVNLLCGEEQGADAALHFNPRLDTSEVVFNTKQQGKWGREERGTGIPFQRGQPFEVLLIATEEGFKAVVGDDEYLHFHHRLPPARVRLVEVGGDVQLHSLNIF", "experiment": "microscale thermophoresis (MST) binding, mouse GAL-7", "conditions": "at 10 μM; Red-NHS labeled G1N1 (2 nM)", "experimental": "as §1, §2"}, "[9]": {"biological_target": "T8, human GAL-13 (Homo sapiens, UniProt Q9UHV8)", "T8 construct": "made in house; host or cells: E. coli BL21 (DE3), pET-22b(+)", "T8 sequence (Q9UHV8 1-139)": "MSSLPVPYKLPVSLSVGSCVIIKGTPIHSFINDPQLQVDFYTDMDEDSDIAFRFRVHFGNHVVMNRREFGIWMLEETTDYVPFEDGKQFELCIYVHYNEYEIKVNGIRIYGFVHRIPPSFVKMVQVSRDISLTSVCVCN", "experiment": "microscale thermophoresis (MST) binding, human GAL-13", "conditions": "at 10 μM; Red-NHS labeled G1N1 (2 nM)", "experimental": "as §1, §2"}, "[10]": {"test_system": "human galectin-1 versus galectin-2, -7, -13 and -16", "experiment": "ELISA binding of G1N1 to immobilized recombinant human galectins", "conditions": "human galectins immobilized at 1 and 5 μM; increasing concentrations of G1N1", "experimental": "Briefly, human galectins were immobilized at 1 and 5 μM for 16 h at 4° C. After a blocking step with PBS containing 10% (v/v) BSA (blocking buffer), increasing concentrations of G1N1 were added to each well and incubated for 1 h at room T° C. […] The colorimetric assay was carried out with 3,3′,5,5′-tetramethylbenzidine (Sigma-Aldrich, ON, Canada) according to the manufacturers recommendations.\nELISA assays. Recombinant human galectins were immobilized in 96-well plates at the indicated concentrations for 16 h at 4° C. After a blocking step with PBS containing 10% (v/v) bovine serum albumin (BSA) (blocking buffer), increasing concentrations of G1N1 were added to each well and incubated for 1 h at room temperature. […] The colorimetric assay was carried out with TMB (Sigma-Aldrich, MO, USA) according to the manufacturer's recommendations."}},
  "note": "“Also recorded” adds a separate entry of the source.",
  "data": [
    {"molecule": "B1", "values": [
      {"measurement": "affinity for galectin-1 relative to the affinity of lactose for galectin-1", "setting": "[1]; MST, Red-NHS labeled human GAL-1 (5 nM) with G1N1 or alpha-lactose", "result": "approximately 200 fold"},
      {"measurement": "binding affinity (Kd) for human recombinant galectin-1 by MST", "setting": "[1]; Red-NHS labeled G1N1 (2 nM), 20 mM Tris-HCl 150 mM NaCl 0.1% F127", "result": "in the nanomolar range"},
      {"measurement": "inhibition of GAL-7-induced apoptosis of Jurkat T cells", "setting": "[2]", "result": "did not inhibit; also recorded: No significant inhibition"},
      {"measurement": "binding to human GAL-8 by MST", "setting": "[3]", "result": "does not bind; also recorded: no binding was detected"},
      {"measurement": "binding to human GAL-7 by MST", "setting": "[4]", "result": "does not bind; also recorded: no binding was detected"},
      {"measurement": "binding in phage ELISA in the presence of GAL-1-Biotin", "setting": "[5]", "result": "strong binding; also recorded: strong positive hit"},
      {"measurement": "binding affinity (Kd) for mouse recombinant galectin-1 by MST", "setting": "[6]", "result": "in the nanomolar range"},
      {"measurement": "inhibition of galectin-1-induced apoptosis of Jurkat T cells", "setting": "[7]", "result": "strong and significant inhibition"},
      {"measurement": "binding to mouse GAL-7 by MST", "setting": "[8]", "result": "does not bind; also recorded: no binding was detected"},
      {"measurement": "binding to human GAL-13 by MST", "setting": "[9]", "result": "does not bind; also recorded: no binding was detected"},
      {"measurement": "specificity for galectin-1 by ELISA against galectin-2, -7, -13 and -16", "setting": "[10]", "result": "specificity of G1N1 for galectin-1 was confirmed"}
    ]}
  ]
}
